2 molecules from paper PMC5206653, “PDLIM5 links kidney anion exchanger 1 (kAE1) to ILK and is required for membrane targeting of kAE1” (Scientific Reports, 2017) can be followed below.

In this test the target is T1, tag-free PDZ domain of PDLIM5 (PDLIM5-PDZ), first 127 residues (human, UniProt Q96HC4 1-127).
T1 construct: cDNA amplified from human kidney cDNA; a degradation product of the full-length construct in pSUMO3; also called untagged PDLIM5-PDZ; source: E. coli BL21, purified (Ni-NTA, SUMO proteinase 2 digestion, size-exclusion chromatography); not shown: His6-SUMO3, N-terminal, cleaved
T1 sequence (looked up): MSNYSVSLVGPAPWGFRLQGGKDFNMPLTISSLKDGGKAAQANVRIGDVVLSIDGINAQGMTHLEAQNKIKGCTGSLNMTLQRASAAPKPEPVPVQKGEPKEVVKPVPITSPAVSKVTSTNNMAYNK
As to the kind of experiment: ELISA; 100 μl of 30 μM GST_AE1C-WT, -Δ11, -M909T or GST alone immobilised on a 96-well plate; incubated with 100 μl of 2 μg/ml GST_PDLIM5, tag-free PDLIM5-PDZ or GST_ILK; detection with anti-PDLIM5-nt or anti-ILK, HRP, ABTS. Conditions: both partners purified. A general note: ELISA stands for enzyme-linked immunosorbent assay.

B1: GST-tagged AE1 C-terminal domain, wild type (GST_AE1C-WT) (domain or fragment, human)
chain: LIFRNVELQCLDADDAKATFDEEEGRDEYDEVAMPV
notes: last 36 residues of anion exchanger 1 (AE1, SLC4A1), the cytosolic C-terminal tail; cloned into pGEX-4T-1; source: E. coli BL21, purified (glutathione sepharose beads); not shown: GST, N-terminal, kept
Consider B1, for which the binding result was “binds”.

B2: GST-tagged AE1 C-terminal domain with the missense mutation M909T (GST_AE1C-M909T) (domain or fragment, human, UniProt P02730 876-911, looked up)
chain: LIFRNVELQCLDADDAKATFDEEEGRDEYDEVATPV
notes: last 36 residues of anion exchanger 1 (AE1, SLC4A1) with the dRTA-causing mutation M909T; cloned into pGEX-4T-1; C-terminus becomes A908TPV; source: E. coli BL21, purified (glutathione sepharose beads); not shown: GST, N-terminal, kept
B2: the binding result was “binds”.
